The results in this text go back to patent publication US20230227537A1.

The target of this assay is Mouse IgG1 Fc fused SARS-CoV-2 RBD (Sino Biological) (SARS-CoV-2; mouse), P0DTC2. The settings on record: remark: other sources report otherwise.

Several values for one entry are separate records, joined by “and”; a condition that tells them apart may be missing. Equal entries are not always repeated.

B1: VHH72_S56A-Fc (P. pastoris) (Fc fusion)
chain: QVQLQESGGGLVQAGGSLRLSCAASGRTFSEYAMGWFRQAPGKEREFVATISWSGGATYYTDSVKGRFTISRDNAKNTVYLQMNSLKPDDTAVYYCAAAGLGTVVSEWDYDYDYWGQGTQVTVSS
Turning to B1, the % Signal decrease over 8 min dissociation is 6% and 7%; the equilibrium dissociation constant (Kd) was 0.0496 nM and 0.0541 nM; the koff was 0.000123 s⁻¹ and 0.000146 s⁻¹; the on-rate constant (kon) was 2.48e+06 M⁻¹ s⁻¹ and 2.69e+06 M⁻¹ s⁻¹.

For orientation: Kd means a measure of binding affinity in units of concentration. The low end stands for a tighter complex, the high end for a looser complex. By koff is commonly meant a measure of how fast the partners let go of each other. Higher therefore signals fast dissociation. The kon is the second-order rate constant of association.
